Results on two molecules are retold here after paper PMC11931166, “Heterologous expression and characterization of xylose-tolerant GH 43 family β-xylosidase/α-L-arabinofuranosidase from Limosilactobacillus fermentum and its application in xylan degradation” (Frontiers in Bioengineering and Biotechnology, 2025).

Data set [1] deals with T1, LfXyl43 (GH 43 β-xylosidase/α-L-arabinofuranosidase) (Limosilactobacillus fermentum, UniProt A0ABF7R1E2).
T1 construct: gene LAF_0405; recombinant rLfXyl43, 551 residues, C-terminal 6× histidine tag
T1 sequence (A0ABF7R1E2 1-551): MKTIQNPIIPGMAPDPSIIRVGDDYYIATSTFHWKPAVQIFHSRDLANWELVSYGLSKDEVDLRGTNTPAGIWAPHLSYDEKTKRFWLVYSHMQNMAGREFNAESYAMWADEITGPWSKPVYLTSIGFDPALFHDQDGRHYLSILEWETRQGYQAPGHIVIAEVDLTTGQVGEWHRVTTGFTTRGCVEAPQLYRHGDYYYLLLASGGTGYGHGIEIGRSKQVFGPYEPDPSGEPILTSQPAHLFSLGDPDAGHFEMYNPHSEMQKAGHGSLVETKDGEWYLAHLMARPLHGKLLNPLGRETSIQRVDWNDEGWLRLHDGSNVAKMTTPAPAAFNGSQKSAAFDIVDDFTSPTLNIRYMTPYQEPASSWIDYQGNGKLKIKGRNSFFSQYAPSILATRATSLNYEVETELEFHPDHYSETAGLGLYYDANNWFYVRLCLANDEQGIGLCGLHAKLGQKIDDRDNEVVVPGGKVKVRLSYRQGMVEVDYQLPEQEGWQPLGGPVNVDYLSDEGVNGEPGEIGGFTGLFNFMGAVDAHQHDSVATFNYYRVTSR
Description: specific activity of purified enzyme at […] substrate. The format is biochemical.

Substrate in data set [2]: OC1OC[C@@H](O[C@@H]2OC[C@@H](O)[C@H](O)[C@H]2O)[C@H](O)[C@H]1O
In words: Michaelis-Menten kinetics, DNSA reducing sugar assay (Km). The data set is classed as biochemical, Limosilactobacillus fermentum. The following applies: catalytic pocket, subsites −[…] and +[…] (predicted).

Substrate in data set [3]: OC1OC[C@@H](O[C@@H]2OC[C@@H](O[C@@H]3OC[C@@H](O)[C@H](O)[C@H]3O)[C@H](O)[C@H]2O)[C@H](O)[C@H]1O
Described as above. The data set is classed as biochemical, Limosilactobacillus fermentum.

Substrate in data set [4]: OC1OC[C@@H](O[C@@H]2OC[C@@H](O[C@@H]3OC[C@@H](O[C@@H]4OC[C@@H](O)[C@H](O)[C@H]4O)[C@H](O)[C@H]3O)[C@H](O)[C@H]2O)[C@H](O)[C@H]1O
The description is as above. Conditions: catalytic pocket, Asp15 and Glu188 at the −[…] subsite (predicted). The data set is classed as biochemical, Limosilactobacillus fermentum.

Substrate in data set [5]: O=[N+]([O-])c1ccc(O[C@@H]2OC[C@@H](O)[C@H](O)[C@H]2O)cc1
In words: purified protein. The data set is classed as biochemical, Limosilactobacillus fermentum. Conditions: catalytic pocket, Asp15, Asp129 and Glu188 (predicted).

Substrate in data set [6]: O=[N+]([O-])c1ccc(O[C@@H]2O[C@@H](CO)[C@H](O)[C@H]2O)cc1
In words: purified protein. The data set is classed as biochemical, Limosilactobacillus fermentum.

Consider `O=[N+]([O-])c1ccccc1O[C@@H]1OC[C@@H](O)[C@H](O)[C@H]1O` [oNPX, o-nitrophenyl-β-D-xylopyranoside], for which the “Specific activity, U/mg” value in data set [1] is reported as 3.8 ± 0.1 U/mg.

B1: LfXyl43 (GH 43 β-xylosidase/α-L-arabinofuranosidase) (Limosilactobacillus fermentum IFO 3956) (protein)
chain: T1 sequence (A0ABF7R1E2 1-551)
notes: recombinant rLfXyl43, 551 residues, C-terminal 6× histidine tag
Consider B1, for which the Km – broadly, the concentration of substrate that gives half-maximal velocity – is on record as 134.7 mM in data set [2]; 120.2 mM in data set [3]; 84.2 mM in data set [4]; 2.0 mM in the data set “purified protein [5]”; 1.5 mM in “purified protein [6]”. Also, the Vmax (as a rule, the rate approached at saturating substrate) was 241 µmol/min/mg in data set [2]; 441 µmol/min/mg in data set [3]; 488 µmol/min/mg in data set [4]; 19.7 µmol/min/mg in “purified protein [5]”; 0.4 µmol/min/mg in “purified protein [6]”. Besides, the catalytic constant (kcat) (as a rule, the maximal rate divided by the concentration of active sites) was 1740 s⁻¹ in data set [2]; 3170 s⁻¹ in data set [3]; 3530 s⁻¹ in data set [4]; 142 s⁻¹ in “purified protein [5]”; 2.8 s⁻¹ in the data set “purified protein [6]”. Also, the kcat/Km (in general, the turnover number divided by the Michaelis constant) was 12900 M⁻¹ s⁻¹ in data set [2], 26400 M⁻¹ s⁻¹ in data set [3], 41900 M⁻¹ s⁻¹ in data set [4] and 1900 M⁻¹ s⁻¹ in “purified protein [6]”.
